Experimental data reported in patent US20010029034A1.

Key:
[1] = test system: His-tagged Cripto (a TGF-a family member)
[2] = test system: T1, first Kunitz-type domain of the TFPI-3 protein (TFPI-3-1), His-tagged, expressed in E. coli
T1 sequence: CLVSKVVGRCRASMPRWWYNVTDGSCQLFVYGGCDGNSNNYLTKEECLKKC

Trypsin (Sigma) = assay: cell-based or functional assay

trypsin activity inhibited, 5.00 dose of TFPI-3-1 (Trypsin (Sigma))	trypsin activity left against buffer only samples, 10 of TFPI-3-1, duplicate samples (Trypsin (Sigma))	trypsin activity left against the buffer-only control, 10.00 dose of TFPI-3-1 (Trypsin (Sigma))	Substance	trypsin activity on TAME substrate, same concentrations of Cripto as control [1]	trypsin activity on TAME substrate (absorbance at 247 nm), 1.25 dose of TFPI-3-1 [2]	trypsin activity on TAME substrate (absorbance at 247 nm), 2.50 dose of TFPI-3-1 [2]
–	–	–	Trypsin (Sigma)	no trypsin inhibiting activity could be observed	did not appear to inhibit trypsin activity at 1.25 and 2.50 mg doses	did not appear to inhibit trypsin activity at 1.25 and 2.50 mg doses
60%	7%	13%	first Kunitz-type domain of the TFPI-3 protein (TFPI-3-1), His-tagged, expressed in E. coli (from UniProt O43291 38-88)	–	–	–
